The values below come from publication PMC10837013, “Synergistic induction of phytoalexins in Nicotiana attenuata by jasmonate and ethylene signaling mediated by NaWRKY70”.

The data set concerns the target T1, NaWRKY70 (Nicotiana attenuata, UniProt A0A1J6IGI0 1-225).
T1 chain: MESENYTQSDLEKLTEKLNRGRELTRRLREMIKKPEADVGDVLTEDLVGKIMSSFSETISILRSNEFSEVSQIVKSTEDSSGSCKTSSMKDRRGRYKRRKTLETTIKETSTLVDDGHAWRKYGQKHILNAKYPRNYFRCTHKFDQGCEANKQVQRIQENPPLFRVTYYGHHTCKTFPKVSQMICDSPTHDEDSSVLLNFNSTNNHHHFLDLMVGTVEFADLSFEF
As to the kind of experiment: EMSA; Chemiluminescence EMSA kit (Beyotime), manufacturer's protocol; buffer, salt, pH and temperature not stated. The note with it: protein: recombinant; tags: GST (pGEX-4T-1); chain copies: 0; label: biotin.

B1: NaF6'H1 mProbe 1 (dsDNA)
DNA 1: GGTCTCTTTAGCTCTACCAACTATTC
DNA 2: GAATAGTTGGTAGAGCTAAAGAGACC
B1: the binding result is reported as “no binding”.
